{"source": "patent US20240190989A1", "about": "(BEIGENE SWITZERLAND, published 2024)", "binders": {"B1": {"name": "BGA-4712 (anti-huCD137 VH domain antibody as VH-Fc with inert human IgG1 Fc) (Fc fusion)", "chain": "EVQLLESGGGLVQPGGSLRLSCAASGFMLSAEDVGWVRQAPGKGLEWVSAILDFGGSTYYADSVKGRFTISRDNSKNTLYLQMNSLRAEDTAVYYCARVVYHAGGGVTFDYWGQGTLVTVSSGGGGSDKTHTCPPCPAPPAAGPSVFLFPPKPKDTLMISRTPEVTCVVVDVSHEDPEVKFNWYVDGVEVHNAKTKPREEQYNSTYRVVSVLTVLHQDWLNGKEYKCKVSNKALAAPIEKTISKAKGQPREPQVYTLPPSREEMTKNQVSLTCLVKGFYPSDIAVEWESNGQPENNYKTTPPVLDSDGSFFLYSKLTVDKSRWQQGNVFSCSVMHEALHNHYTQKSLSLSPGK"}, "B2": {"name": "BGA-5623-mutFc (Fc fusion VH Ab) (Fc fusion)", "chain": "B1 chain with M28T, L29V, F54K, D62E, S75A, N84S, V99I, Y111T, W112R, L117Q"}, "B3": {"name": "Urelumab analog (antibody, human IgG4 S228P, kappa, V domains shown)", "VH": "QVQLQQWGAGLLKPSETLSLTCAVYGGSFSGYYWSWIRQSPEKGLEWIGEINHGGYVTYNPSLESRVTISVDTSKNQFSLKLSSVTAADTAVYYCARDYGPGNYDWYFDLWGRGTLVTVSS", "VL": "EIVLTQSPATLSLSPGERATLSCRASQSVSSYLAWYQQKPGQAPRLLIYDASNRATGIPARFSGSGSGTDFTLTISSLEPEDFAVYYCQQRSNWPPALTFGGGTKVEIKR", "notes": "also called Urelumab analog antibody"}, "B4": {"name": "BE-189 (Format A BGA-5623) (bispecific antibody, human IgG1, kappa)", "heavy": "QVQLVQSGAEVKKPGASVKVSCKASGYIFTSYYLHWVRQAPGQGLEWIGYINPQTGKTSYAQKFQGRVTMTRDTSTSTVYMELSSLRSEDTAVYYCAREYGNYNYPLDYWGQGTLVTVSSASTKGPSVFPLAPSSKSTSGGTAALGCLVKDYFPEPVTVSWNSGALTSGVHTFPAVLQSSGLYSLSSVVTVPSSSLGTQTYICNVNHKPSNTKVDKKVEPKSCDKTHTCPPCPAPPAAGPSVFLFPPKPKDTLMISRTPEVTCVVVDVSHEDPEVKFNWYVDGVEVHNAKTKPREEQYNSTYRVVSVLTVLHQDWLNGKEYKCKVSNKALAAPIEKTISKAKGQPREPQVYTLPPSREEMTKNQVSLTCLVKGFYPSDIAVEWESNGQPENNYKTTPPVLDSDGSFFLYSKLTVDKSRWQQGNVFSCSVMHEALHNHYTQKSLSLSPGKGGGGSEVQLLESGGGLVQPGGSLRLSCAASGFTVSAEDVGWVRQAPGKGLEWVSAILDKGGSTYYAESVKGRFTISRDNAKNTLYLQMSSLRAEDTAVYYCARIVYHAGGGVTFDTRGQGTQVTVSS", "light": "DIQMTQSPSSLSASVGDRVTITCRASENQYGYLAWYQQKPGKVPKLLIYNYKNLVEGVPSRFSGSGSGTDFTLTISSLQPEDVATYYCQHHLGTPYTFGQGTKVEIKRTVAAPSVFIFPPSDEQLKSGTASVVCLLNNFYPREAKVQWKVDNALQSGNSQESVTEQDSKDSTYSLSSTLTLSKADYEKHKVYACEVTHQGLSSPVTKSFNRGEC", "notes": "Module ratio 2:2, inert Fc"}, "B5": {"name": "anti-CEA Ab (IgG1) (antibody, V domains shown)", "VH": "QVQLVQSGAEVKKPGASVKVSCKASGYIFTSYYLHWVRQAPGQGLEWIGYINPQTGKTSYAQKFQGRVTMTRDTSTSTVYMELSSLRSEDTAVYYCAREYGNYNYPLDYWGQGTLVTVSS", "VL": "DIQMTQSPSSLSASVGDRVTITCRASENQYGYLAWYQQKPGKVPKLLIYNYKNLVEGVPSRFSGSGSGTDFTLTISSLQPEDVATYYCQHHLGTPYTFGQGTKVEIKR"}, "B6": {"name": "human CD137 ligand-mIgG2a (Fc fusion)", "chain": "EPRGPTIKPCPPCKCPAPNLLGGPSVFIFPPKIKDVLMISLSPIVTCVVVDVSEDDPDVQISWFVNNVEVHTAQTQTHREDYNSTLRVVSALPIQHQDWMSGKEFKCKVNNKDLPAPIERTISKPKGSVRAPQVYVLPPPEEEMTKKQVTLTCMVTDFMPEDIYVEWTNNGKTELNYKNTEPVLDSDGSYFMYSKLRVEKKNWVERNSYSCSVVHEGLHNHHTTKSFSRTPGKGGGGSREGPELSPDDPAGLLDLRQGMFAQLVAQNVLLIDGPLSWYSDPGLAGVSLTGGLSYKEDTKELVVAKAGVYYVFFQLELRRVVAGEGSGSVSLALHLQPLRSAAGAAALALTVDLPPASSEARNSAFGFQGRLLHLSAGQRLGVHLHTEARARHAWQLTQGATVLGLFRVTPEIPAGLPSPRSE", "notes": "also called human CD137 ligand ECD-mIgG2a; huCD137 ligand"}}, "key": {"[1]": {"target": "T1, full-length human CD137 on cells (Hut78/huCD137, HEK293 transfectants, JK-NFKB-CD137) (human, UniProt Q07011 24-255)", "T1 construct": "also called native CD137; TNFRSF9", "T1 sequence (Q07011 24-255 limits assumed)": "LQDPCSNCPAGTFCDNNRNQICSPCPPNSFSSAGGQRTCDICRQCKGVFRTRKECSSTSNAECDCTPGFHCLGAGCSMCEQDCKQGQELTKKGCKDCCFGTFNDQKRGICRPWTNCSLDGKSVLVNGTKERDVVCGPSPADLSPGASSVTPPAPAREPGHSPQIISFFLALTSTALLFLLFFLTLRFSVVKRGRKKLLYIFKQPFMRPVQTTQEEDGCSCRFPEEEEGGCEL", "assay": "flow cytometry on Hut78/huCD137 cells [panel A]"}, "[2]": {"target": "T2, full-length human CEA on cells (MKN45, LOVO, L929/huCEA, CT26/CEA, CT26-OS8-CEA) (human, UniProt P06731 35-685)", "T2 construct": "also called CEACAM5; native CEA", "T2 sequence": "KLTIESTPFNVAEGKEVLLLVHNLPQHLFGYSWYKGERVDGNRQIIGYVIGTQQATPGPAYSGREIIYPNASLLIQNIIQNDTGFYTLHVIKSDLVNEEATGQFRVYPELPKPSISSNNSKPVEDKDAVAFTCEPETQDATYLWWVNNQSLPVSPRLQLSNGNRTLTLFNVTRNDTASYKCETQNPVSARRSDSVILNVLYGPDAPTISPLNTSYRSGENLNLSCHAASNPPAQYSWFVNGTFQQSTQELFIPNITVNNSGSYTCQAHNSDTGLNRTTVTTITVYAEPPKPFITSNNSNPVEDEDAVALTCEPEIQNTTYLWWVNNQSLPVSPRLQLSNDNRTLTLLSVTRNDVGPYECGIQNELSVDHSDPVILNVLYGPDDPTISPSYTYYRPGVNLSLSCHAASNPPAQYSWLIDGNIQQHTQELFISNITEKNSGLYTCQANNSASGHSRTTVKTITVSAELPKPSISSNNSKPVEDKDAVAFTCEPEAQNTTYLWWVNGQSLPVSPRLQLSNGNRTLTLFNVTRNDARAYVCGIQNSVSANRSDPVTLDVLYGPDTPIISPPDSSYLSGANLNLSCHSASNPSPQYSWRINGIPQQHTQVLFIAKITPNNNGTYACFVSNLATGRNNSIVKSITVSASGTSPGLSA", "assay": "flow cytometry on CT26/CEA cells [panel A]"}, "[3]": {"target": "T1, full-length human CD137 on cells …", "assay": "flow cytometry on Hut78/huCD137 cells"}, "[4]": {"target": "T3, human CD137 ECD-mIgG2a (human)", "T3 construct": "ECD 24-183 of huCD137 fused to mouse IgG2a Fc; also called huCD137-mIgG2a; huCD137", "T3 sequence (chain, as listed by the source limits assumed)": "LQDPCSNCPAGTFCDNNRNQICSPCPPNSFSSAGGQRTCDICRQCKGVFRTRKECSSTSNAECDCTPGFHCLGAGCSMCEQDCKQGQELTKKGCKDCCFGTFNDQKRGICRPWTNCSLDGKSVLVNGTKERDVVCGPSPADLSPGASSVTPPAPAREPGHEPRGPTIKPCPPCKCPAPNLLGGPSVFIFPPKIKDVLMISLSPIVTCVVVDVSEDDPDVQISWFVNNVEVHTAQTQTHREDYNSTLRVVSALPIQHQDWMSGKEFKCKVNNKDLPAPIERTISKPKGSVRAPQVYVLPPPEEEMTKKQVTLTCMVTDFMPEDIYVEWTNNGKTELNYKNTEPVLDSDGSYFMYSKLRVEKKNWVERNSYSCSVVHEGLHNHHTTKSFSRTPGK", "assay": "SPR, Fc-fusion VH captured"}, "[5]": {"target": "T1, full-length human CD137 on cells …", "assay": "flow cytometry on Hut78/huCD137 cells: serially diluted antibody against human CD137 ligand ECD-mIgG2a, bound ligand detected with goat anti-murine IgG-APC [panel B]"}, "[6]": {"target": "T4, human CD40 ECD-mIgG2a (human)", "T4 construct": "also called TNFRSF5(CD40)", "T4 sequence (chain, as listed by the source limits assumed)": "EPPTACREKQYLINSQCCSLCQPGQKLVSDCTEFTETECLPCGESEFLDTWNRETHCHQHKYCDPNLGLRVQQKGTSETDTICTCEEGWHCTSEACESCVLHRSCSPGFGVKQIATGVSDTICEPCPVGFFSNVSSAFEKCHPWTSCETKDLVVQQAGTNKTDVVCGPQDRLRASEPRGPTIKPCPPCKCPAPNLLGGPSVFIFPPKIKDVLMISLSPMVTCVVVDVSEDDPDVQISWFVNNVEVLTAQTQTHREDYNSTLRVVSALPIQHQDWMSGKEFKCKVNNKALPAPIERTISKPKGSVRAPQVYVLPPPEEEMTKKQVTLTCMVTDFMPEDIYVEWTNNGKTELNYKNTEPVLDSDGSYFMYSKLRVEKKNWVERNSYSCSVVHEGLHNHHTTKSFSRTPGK", "assay": "antigen ELISA, antigens coated at 10 µg/ml"}, "[7]": {"target": "T5, TNFRSF1B (CD120b), Sino Biological (UniProt P20333 23-257)", "T5 sequence (looked up)": "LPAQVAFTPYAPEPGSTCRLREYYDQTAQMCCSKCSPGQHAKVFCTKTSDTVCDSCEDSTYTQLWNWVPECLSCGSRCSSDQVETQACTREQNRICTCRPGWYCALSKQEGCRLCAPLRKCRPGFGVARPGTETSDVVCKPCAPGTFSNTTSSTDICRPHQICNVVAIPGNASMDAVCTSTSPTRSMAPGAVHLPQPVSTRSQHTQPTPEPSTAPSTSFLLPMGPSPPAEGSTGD", "assay": "antigen ELISA, antigens coated at 10 µg/ml"}, "[8]": {"target": "T6, TNFRSF1A (CD120a), Sino Biological (UniProt P19438 30-211, limits assumed)", "T6 construct": "also called TNFRSF1A(CD12.a)", "T6 sequence (looked up)": "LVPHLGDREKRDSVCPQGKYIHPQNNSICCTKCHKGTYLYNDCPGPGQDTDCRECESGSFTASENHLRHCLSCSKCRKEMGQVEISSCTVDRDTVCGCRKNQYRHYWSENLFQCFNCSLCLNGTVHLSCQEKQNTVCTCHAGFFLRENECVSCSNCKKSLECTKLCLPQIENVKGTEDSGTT", "assay": "antigen ELISA, antigens coated at 10 µg/ml"}, "[9]": {"target": "T7, human OX40 ECD-His (human, UniProt P43489 29-216)", "T7 construct": "also called human OX40-his; TNFRSF4(OX40)", "T7 sequence": "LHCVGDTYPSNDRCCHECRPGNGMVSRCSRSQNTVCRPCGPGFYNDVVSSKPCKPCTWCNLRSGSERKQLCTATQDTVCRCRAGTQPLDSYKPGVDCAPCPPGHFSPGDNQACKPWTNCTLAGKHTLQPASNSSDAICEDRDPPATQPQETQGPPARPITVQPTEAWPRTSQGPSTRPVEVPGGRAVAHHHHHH", "assay": "antigen ELISA, antigens coated at 10 µg/ml"}, "[10]": {"target": "T1, full-length human CD137 on cells …", "assay": "cell-based or functional assay"}, "[11]": {"target": "T1, full-length human CD137 on cells …", "assay": "flow cytometry on Hut78/huCD137 cells", "remark": "listed apart in the source"}, "[12]": {"target": "T3, human CD137 ECD-mIgG2a", "assay": "SPR, A-CEAxCD137 format"}, "[13]": {"target": "T1, full-length human CD137 on cells …", "assay": "cell-based or functional assay", "remark": "listed apart in the source"}, "[14]": {"target": "T1, full-length human CD137 on cells …", "assay": "flow cytometry on Hut78/huCD137 cells [panel B]"}, "[15]": {"target": "T1, full-length human CD137 on cells …", "assay": "flow cytometry competition on Hut78/huCD137 cells: serially diluted human CD137 ligand-mIgG2a against BGA-4712 VH-Fc, bound VH-Fc detected with anti-hu IgG Fc [panel B]"}, "[16]": {"target": "T3, human CD137 ECD-mIgG2a", "assay": "competition ELISA on coated human CD137 ECD-mIgG2a: serially diluted human CD137 ligand ECD-mIgG2a against BGA-5623 (IgG4), bound antibody detected with anti-human IgG-HRP [panel A]"}}, "note": "Changes are numbered by the printed parent chain."}
{"binder": "B1", "values": [{"measurement": "EC50 (read off the curve)", "setting": "[1]", "value": "~3", "unit": "µg/mL"}, {"measurement": "binding result", "setting": "[2]", "value": "no binding (tested: last point just above 10^2 ug/ml)"}]}
{"binder": "B2", "values": [{"measurement": "EC50 (read off the curve)", "setting": "[3]", "value": "~0.5", "unit": "µg/mL"}, {"measurement": "Kd", "setting": "[4]", "value": 50.3, "unit": "nM"}]}
{"binder": "B3", "values": [{"measurement": "IC50 (read off the curve)", "setting": "[5]", "value": "~0.03", "unit": "µg/mL"}, {"measurement": "binding result", "setting": "[6]", "value": "no binding (tested: not shown)"}, {"measurement": "binding result", "setting": "[7]", "value": "no binding (tested: not shown)"}, {"measurement": "binding result", "setting": "[8]", "value": "no binding (tested: not shown)"}, {"measurement": "binding result", "setting": "[9]", "value": "no binding (tested: not shown)"}]}
{"binder": "B4", "values": [{"measurement": "Functions EC50 (PBMC cytokine release)", "setting": "[10]", "value": 0.341, "unit": "µg/mL"}, {"measurement": "EC50", "setting": "[11]", "value": 0.38, "unit": "µg/mL"}, {"measurement": "Kd", "setting": "[12]", "value": 94.8, "unit": "nM"}, {"measurement": "Functional assay EC50 (PBMC cytokine release, in vitro CD137 activation)", "setting": "[13]", "value": 0.31, "unit": "µg/mL"}]}
{"binder": "B5", "values": [{"measurement": "binding result", "setting": "[14]", "value": "no binding (tested: last point just above 10^2 ug/ml)"}]}
{"binder": "B6", "values": [{"measurement": "IC50 (read off the curve)", "setting": "[15]", "value": "~0.4", "unit": "µg/mL"}, {"measurement": "IC50 (read off the curve)", "setting": "[16]", "value": "~1", "unit": "µg/mL"}]}
